Reference: US7638334B2, “Method for generating engineered cells by homologously recombining segments having increased degeneracy” (Morphotek, Inc., priority 2002, dated 2009)

System: endogenous MMR activity
Assay: pCAR-OF β-galactosidase reporter assay for MMR deficiency (in situ X-gal staining)
Assay type: cell-based, human
Settings: PMS134 expressed from pEF vector in HEK293 cells
Text: A method used to detect MMR deficiency in eukaryotic cells is to employ a reporter gene that has a polynucleotide repeat inserted within the coding region that disrupts its reading frame due to a frame shift. In the case where MMR is defective, the reporter gene will acquire random mutations (i.e. insertions and/or deletions) within the polynucleotide repeat yielding clones that contain a functional reporter gene. An example of the ability to alter desired genes via defective MMR comes from experiments using HEK293 cells (described above), where a mammalian expression construct containing a defective β-galactosidase gene (referred to as pCAR-OF) was transfected into 293PMS134 or 293vec cells as described above. The pCAR-OF vector consists of a β-galactosidase gene containing a 29-basepair poly-CA tract inserted at the 5′ end of its coding region, which causes the wild-type reading frame to shift out-of-frame. […] Another reporter vector called pCAR-IF contains a β-galactosidase in which a 27-bp poly-CA repeat was cloned into the same site as the pCAR-OF gene, but it is biologically active because the removal of a single repeat restores the open reading frame and produces a functional chimeric β-galactosidase polypeptide (not shown). […] Cells were scored positive if the colonies turned blue in the presence of X-gal substrate and scored negative if colonies remained white. […]

B1: PMS134: previously published dominant negative human PMS2 mismatch repair mutant (SEQ ID NO:11/12) (protein, listed as Homo sapiens)
chain: RGGSGVASMERAESSSTEPAKAIKPIDRKSVHQICSGQVVLSLSTAVKELVENSLDAGATNIDLKLKDYGVDLIEVSDNGCGVEEENFEGLTLKHHTSKIQEFADLTQVETFGFRGEALSSLCALSDVTISTCHASAKVGT
  dominant negative effect on MMR: robust dominant negative effect
